According to patent US6218168A, “Process for preparing O-acetylserine, L-cysteine and L-cysteine-related products” (Consortium fur elektrochemische Inudstrie GmbH, priority 1995, dated 2001):

B1: cysEIV: double mutant Ala237->Val237, Gly238->Ser238 (protein, UniProt P0A9D4 1-273, looked up, variant A237V G238S)
Serine acetyltransferase: MSCEELEIVWNNIKAEARTLADCEPMLASFYHATLLKHENLGSALSYMLANKLSSPIMPAIAIREVVEEAYAADPEMIASAACDIQAVRTRDPAVDKYSTPLLYLKGFHALQAYRIGHWLWNQGRRALAIFLQNQVSVTFQVDIHPAAKIGRGIMLDHATGIVVGETAVIENDVSILQSVTLGGTGKSGGDRHPKIREGVMIGAGAKILGNIEVGRGAKIGAGSVVLQPVPPHTTAVSVPARIVGKPDSDKPSMDMDQHFNGINHTFEYGDGI

Legend:
[1] = molecular target: T1, serine acetyltransferase of cysteine-prototrophic revertant (Escherichia coli, UniProt P0A9D4, M256I); assay: Literature: end product inhibition of serine acetyltransferase from a cysteine-prototrophic revertant; format: biochemical
T1 construct: host or cells: cysteine-prototrophic revertant of a cysteine-auxotrophic strain mutagenized with ethyl methanesulfonate (Denk and Bock 1987)
T1 sequence (P0A9D4 whole entry M256I): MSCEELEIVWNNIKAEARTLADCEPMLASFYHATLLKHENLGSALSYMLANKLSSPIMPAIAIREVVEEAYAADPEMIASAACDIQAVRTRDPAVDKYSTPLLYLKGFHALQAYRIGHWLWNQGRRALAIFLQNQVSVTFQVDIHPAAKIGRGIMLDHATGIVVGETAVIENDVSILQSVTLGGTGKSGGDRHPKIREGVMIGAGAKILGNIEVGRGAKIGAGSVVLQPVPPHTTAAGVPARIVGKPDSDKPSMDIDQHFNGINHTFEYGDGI
Method: According to the literature reference mentioned, the feedback resistance of this mutant is elevated 10-fold. Consequently, the Ki of this mutant is approx. 0.01 mM, when comparison is made with the wild-type form.

[2] = molecular target: wild-type form of serine acetyltransferase; conditions: 0.1 mM acetyl-coenzyme A and 1 mM L-serine; competitive; read-out: inhibitor constant Ki; cited from earlier work
[3] = molecular target: T1, serine acetyltransferase of cysteine-prototrophic revertant; conditions: versus wild-type; cited from earlier work
serine acetyltransferase = assay: Serine acetyltransferase enzyme activity test with and without L-cysteine (inhibitor constant Ki, specific activity); format: biochemical, E. coli; conditions: for Ki: inhibitor L-cysteine
Description: Any method which enables the activity of the serine acetyltransferase to be determined in the presence of cysteine can be used for determining the cysteine sensitivity of this enzyme. For example, the serine acetyltransferase activity can be determined using the method described by Kredich and Tomkins, J. Biol. Chem. 241: 4955-4965 (1966). In this test, the enzyme test mixture contains the substrate, L-serine, and the cofactor, acetyl-coenzyme A. The reaction is started by adding enzyme and monitored, in a spectro photometer, by observing the decrease in absorption at 232 nm which is elicited by the cleavage of the thioester bond in the acetyl-coenzyme A.
The above-described enzyme test is suitable for determining the cysteine sensitivity of any serine acetyltransferase enzyme, including the enzymes which have a modified carboxyl terminus. Inhibition of the serine acetyltransferase activity is tested in the presence of differing concentrations of L-cysteine in the reaction mixture. The catalytic activity of the different serine acetyltransferase enzymes is determined in the presence and absence of L-cysteine, and the inhibitor constant, Ki, is ascertained from this (Kredich and Tomkins, J. Biol. Chem., 241, 4955-4965 (1966)).
In order to investigate the biochemical basis of the cysteine secretion of the revertants, the activity of the serine acetyltransferase was determined in vitro, and the ability of cysteine to inhibit the enzyme was measured. For the determination, use was made of S30 extracts (cell homogenates centrifuged at 30,000 g and 4° C. for 20 minutes) of the selected revertants, the starting strains and the comparison strain, E. coli W3110 (ATTC 27325).
The biochemical parameters such as enzyme activity and inhibitor constant, Ki, were determined in an analogous manner to that described in Example 1.
The plasmids resulting from this cloning were designated pACYC184/cysE-Del in accordance with the extent of their deletion (cf. FIG. 9 for the plasmid map). Determination of the enzymic activity and the inhibitor constant, Ki, and also the cross-feeding test, were carried out in analogy with the description in Example 1. DNA sequence analysis was used to confirm that the deletions had been correctly introduced.
Determination of the enzymic activity and of the inhibitor constant Ki, and also the cross-feeding test, were carried out in analogy with the description in Example 1.

production strain JM15 = assay: Cysteine production in 1 L fermenter, JM15 with plasmid-encoded cysE alleles; format: cell-based, E. coli; conditions: 48 h, JM15 transformed with plasmid
Method: Influence of different, plasmid-encoded cysE alleles on the production of L-cysteine or products derived from L-cysteine in a 1 L fermenter using the host strain JM15 20 mL of LB medium (1% tryptone, 0.5% yeast extract, 0.5% NaCl) contained in a 100 mL Erlenmeyer flask were inoculated with a single colony of the production strain JM15 (CGSC#5042) which had been transformed with the respective cysE plasmid.
After having been incubated for 7 hours in a bacterial shaker (30° C., 150 rpm), the respective preliminary cultures were transferred to 100 mL of SM1 medium. The SM1 medium contained 5 g/L glucose, 5 mg/L vitamin B1, 3 g/l KH2 PO4, 12 g/L K2 HPO4, 0.3 g/L MgSO4×7 H2 O, 0.1 g/L NaCl, 5 g/L (NH4)2 SO4, 14.7 mg/L CaCl2×2 H2 O, 2 mg/L FeSO4×2 H2 O, 1 g/L Na3 citrate×2 H2 O, 1 ml/L trace element solution and 25 mg/L tetracycline. The trace element solution was composed of 0.15 g/L Na2 MoO4×2 H2 O, 2.5 g/L H3 BO3, 0.7 g/L CoCl2×6 H2 O, 0.25 g/L CuSO4×5 H2 O, 1.6 g/L MnCl2×4 H2 O and 0.3 g/L ZnSO4×7 H2 O. The cultures were shaken in 1 L Erlenmeyer flasks at 30° C. and at 150 rpm for 17 h. After this incubation, the OD600 was between 4 and 5. The subsequent fermentation was carried out in Braun-Melsungen BIOSTAT M research fermenters. A culturing vessel having a total volume of 2 L was used.
The fermentation medium contained 15 g/L glucose, 5 g/L NaCl, 0.3 g/L MgSO4×7 H2 O, 15 mg/L CaCl2×2 H2 O, 75 mg/L FeSO4×7 H2 O, 1 g/L Na3 citrate×2 H2 O, 1.5 g/L KH2 PO4, 1 mL of trace element solution (see above), 5 mg/L vitamin B1, 2.5 g/L yeast extract (Difco), 2.5 g/L tryptone (Difco) and 25 mg/L tetracycline.
The glucose concentration in the fermenter was initially adjusted to a value of 15 g/L by pumping in a 700 g/L (w/v) (sterilized) glucose solution, and the pH was adjusted to 7.0 by pumping in a 25% NH4 OH solution. After an OD600 of 10 had been reached, 300 mg per hour were supplied from a sterile 100 g/L (w/v) stock solution of thiosulfate. 100 mL of preliminary culture were pumped into the fermenter vessel for the inoculation. The starting volume was approximately 1 L. The cultures were initially stirred at 400 rpm and aerated with 1.5 vvm of compressed air which had been sterilized by passing through a sterile filter. The fermentation was carried out at a temperature of 30° C.
The pH was maintained at a value of 7.0 by means of automatic correction with 25% NH4 OH. The oxygen saturation in the fermentation broth had at no time during the fermentation to fall below 20%; the stirring speed was used to ensure this. The glucose content of the nutrient solution, the optical density and the cysteine content were determined at two- to three-hourly intervals. The glucose content was determined enzymically using a glucose analyzer from YSI. The concentration of the glucose was adjusted to between 10 and 20 g/L by means of continuously feeding in this compound.
The content of cysteine in the medium was determined […] from the cell-free super-natant of the sample using the method of Gaitonde, M. K. (1967), Biochem. J. 104, 627-633.
The fermentation was terminated after 44-50 h.

JM15attλ::cysE strains = assay: Cysteine production in 1 L fermenter, chromosomally encoded cysE alleles; format: cell-based, E. coli; conditions: single chromosomal copy
Method: For the purpose of being integrated into the chromosomal attachment site (attλ), the cysE alleles cysEIV, cysEX and cysEXI were cloned into the plasmid pRS551 (Simons et al., 1987, Gene 53: 85-96). For this, each cysE allele was amplified by PCR from the corresponding cysE plasmid. The oligonucleotides which were used, i.e. cysE-fwl and cysE-revl, are described in Example 1. The amplification was carried out as described in Example 3. The resulting fragments were cleaved with EcoRI/BamHI, purified through an agarose gel and ligated into vector pRS551 which had been cleaved with EcoRI and BamHI. This afforded the vector pRS551-based recombinant plasmids pRScysEIV, X and XI.
A heterogeneous lambda lysate, which contained recombinant cysE allele-carrying λRS45 derivatives in addition to λRS45 phages, was produced in vivo by homologous recombination by means of preparing a plate lysate on a pRScysE-carrying recA^+ strain (e.g. YMC9, ATCC 3397) using the λRS45 phage (Simons et al., 1987, Gene 53: 85-96).
The cysE strain JM15, which was infected with the heterogeneous lambda lysate and subsequently plated on kanamycin-containing (25 mg/L) LB plates, was used for selecting for the recombinant RS45 derivatives. The lysogenic, kanamycin-resistant clones which were obtained were then tested for their ability to grow on minimal medium plates without cysteine. A clone which was in each case cysteine-prototrophic was selected and used for preparing a homogeneous cysE λ lysate (by means of UV induction, Simons et al., 1987, Gene 53: 85-96).
The JM15 stain was infected with these homogeneous cysE λ lysates which were obtained in each case. The resulting JM15attλ::cysE strains were cultured as described in Example 6. Instead of tetracycline, the respective media in each case contained 25 mg of kanamycin per L as the selection agent.

Row | Molecule | Ki [1] [µM] | Ki [2] [µM] | feedback resistance elevated [3] [fold] | Ki (serine acetyltransferase; Table 1a, 1 mM L-serine, 0.1 mM acetyl-CoA) [µM] | spec. act. (serine acetyltransferase; Table 1a, serine acetyltransferase activity) [µmol/min/mg] | Ki (serine acetyltransferase; Table 4, alleles from site-specific mutagenesis) [µM] | Cysteine yield (production strain JM15) [g/L] | yields of cysteine (JM15attλ::cysE strains) [g/L]
1 | N[C@@H](CS)C(=O)O [L-cysteine] | ~10 | 1.1 | 10 | – | – | – | – | –
2 | B1 | – | – | – | 40 | 0.170 | 40 | 1.6 | 0.5
